The source of these data is US20190078119A1.

For this assay, the target named is AAV8 capsid (native AAV8) (AAV8). The assay is described as follows: cell-based or functional assay.
As for monoclonal antibody ADK8/9, the AAV8 Nab titer (neutralizing antibody titer of the antibody stock) is 2560 titer 1:n. The result for monoclonal antibody ADK9 reads 5 titer 1:n; that for monoclonal neutralizing antibody ADK8, 2560 titer 1:n.
